Reference: the Immune Epitope Database (IEDB)
Blank lines part the entries; values can stand above or below the sequence they belong to.

Columns and labels:
HLA-A*02:01 [1] = assay: IEDB peptide-MHC binding, purified MHC/competitive/fluorescence; filed as Kd, often an IC50 or EC50 that approximates it; ≥ and ≤ were set here for values at or beyond the usual limits of such assays
HLA-A*02:16 = assay: as above
HLA-A*03:01 [2] = assay: as above
HLA-A*23:01 = assay: as above
HLA-A*24:03 [3] = assay: as above
HLA-A*26:01 [4] = assay: as above
HLA-B*15:01 [5] = assay: as above; settings: source organism: Vibrio vulnificus CMCP6
HLA-B*18:01 = assay: as above
HLA-B*27:03 = assay: as above
HLA-B*46:01 = assay: as above
HLA-B*57:01 = assay: as above
HLA-A*01:01 = assay: IEDB peptide-MHC binding, purified MHC/direct/fluorescence; filed as Kd, often an IC50 or EC50 that approximates it; ≥ and ≤ were set here for values at or beyond the usual limits of such assays; settings: source organism: Pasteurella multocida
HLA-A*02:01 [6] = assay: as above; settings: source organism: Pasteurella multocida
HLA-A*03:01 [7] = assay: as above; settings: source organism: Pasteurella multocida
HLA-A*11:01 = assay: as above; settings: source organism: Pasteurella multocida
HLA-A*24:03 [8] = assay: as above; settings: source organism: Pasteurella multocida
HLA-A*26:01 [9] = assay: as above; settings: source organism: Pasteurella multocida
HLA-A*31:01 = assay: as above; settings: source organism: Pasteurella multocida
HLA-A*69:01 [10] = assay: as above; settings: source organism: Pasteurella multocida
HLA-B*07:02 = assay: as above; settings: source organism: Pasteurella multocida
HLA-B*08:01 = assay: as above; settings: source organism: Pasteurella multocida
HLA-B*15:01 [11] = assay: as above
HLA-B*27:05 = assay: as above; settings: source organism: Pasteurella multocida
HLA-B*40:01 [12] = assay: as above; settings: source organism: Pasteurella multocida
HLA-B*58:01 = assay: as above
HLA-A*02:03 = assay: IEDB peptide-MHC binding, purified MHC/competitive/fluorescence; filed as Kd, often an IC50 or EC50 that approximates it; ≥ and ≤ were set here for values at or beyond the usual limits of such assays
HLA-A*02:06 = assay: as above
HLA-A*02:11 = assay: as above
HLA-A*02:12 = assay: as above
HLA-A*02:50 = assay: as above; settings: source organism: Pasteurella multocida subsp. multocida str. Pm70
HLA-A*02:19 = assay: as above; settings: source organism: Human immunodeficiency virus 1
HLA-A*69:01 [13] = assay: as above
HLA-B*15:17 = assay: as above
HLA-B*44:02 = assay: as above; settings: source organism: Escherichia coli O139:H28 str. E24377A
HLA-B*40:01 [14] = assay: as above
HLA-A*29:02 = assay: as above; settings: source organism: Burkholderia pseudomallei 668
HLA-A*68:02 = assay: as above; settings: source organism: Burkholderia pseudomallei 668
HLA-B*15:42 = assay: as above; settings: source organism: Burkholderia pseudomallei 668
HLA-B*39:01 = assay: as above; settings: source organism: Burkholderia pseudomallei 668
HLA-B*45:06 = assay: as above; settings: source organism: Burkholderia pseudomallei 668
HLA-B*51:01 = assay: as above; settings: source organism: Burkholderia pseudomallei 668
HLA-B*83:01 = assay: as above; settings: source organism: Burkholderia pseudomallei 668
[15] = source organism: Vibrio vulnificus CMCP6
[16] = source organism: Pasteurella multocida
[17] = source organism: Pasteurella multocida subsp. multocida str. Pm70
[18] = source organism: Human immunodeficiency virus 1
[19] = source organism: Escherichia coli
[20] = source organism: Escherichia coli O139:H28 str. E24377A
[21] = source organism: Burkholderia pseudomallei 668

Sequence: FGAQMGWPV
- Kd (HLA-A*02:01 [1]; [15]): 4.8 nM
- Kd (HLA-A*02:16; [15]): 6.2 nM
- Kd (HLA-A*03:01 [2]; [15]): ≥ 20000 nM
- Kd (HLA-A*23:01; [15]): ≥ 20000 nM
- Kd (HLA-A*24:03 [3]; [15]): ≥ 20000 nM
- Kd (HLA-A*26:01 [4]; [15]): ≥ 20000 nM
- Kd (HLA-B*15:01 [5]): ≥ 20000 nM
- Kd (HLA-B*18:01; [15]): ≥ 20000 nM
- Kd (HLA-B*27:03; [15]): ≥ 20000 nM
- Kd (HLA-B*46:01; [15]): ≥ 20000 nM
- Kd (HLA-B*57:01; [15]): ≥ 20000 nM

- Kd (HLA-A*01:01): ≥ 20000 nM
- Kd (HLA-A*02:01 [6]): 51 nM
- Kd (HLA-A*03:01 [7]): ≥ 20000 nM
- Kd (HLA-A*11:01): ≥ 20000 nM
- Kd (HLA-A*24:03 [8]): ≥ 20000 nM
- Kd (HLA-A*26:01 [9]): 13.1 nM
- Kd (HLA-A*31:01): 1460 nM
- Kd (HLA-A*69:01 [10]): 162 nM
- Kd (HLA-B*07:02): ≥ 20000 nM
- Kd (HLA-B*08:01): ≥ 20000 nM
- Kd (HLA-B*15:01 [11]; [16]): 9230 nM
- Kd (HLA-B*27:05): ≥ 20000 nM
- Kd (HLA-B*40:01 [12]): ≥ 20000 nM
- Kd (HLA-B*58:01; [16]): ≥ 20000 nM
- Kd (HLA-A*02:03; [17]): ≤ 0.1 nM
- Kd (HLA-A*02:06; [17]): ≤ 0.1 nM
- Kd (HLA-A*02:11; [17]): ≤ 0.1 nM
- Kd (HLA-A*02:12; [17]): ≤ 0.1 nM
- Kd (HLA-A*02:50): ≤ 0.1 nM
Sequence: LLKDLMPFV

Sequence: FLGKIWPS
- Kd (HLA-A*02:01 [1]; [18]): 3.25 nM
- Kd (HLA-A*02:03; [18]): ≤ 0.1 nM
- Kd (HLA-A*02:06; [18]): ≤ 0.1 nM
- Kd (HLA-A*02:11; [18]): ≤ 0.1 nM
- Kd (HLA-A*02:12; [18]): ≤ 0.1 nM
- Kd (HLA-A*02:16; [18]): ≤ 0.1 nM
- Kd (HLA-A*02:19): 0.4 nM
- Kd (HLA-A*69:01 [13]; [18]): 2760 nM

- Kd (HLA-B*15:01 [11]; [19]): 93.4 nM
- Kd (HLA-B*58:01; [19]): 52.1 nM
- Kd (HLA-B*15:17; [20]): 5.2 nM
- Kd (HLA-B*44:02): ≥ 20000 nM
- Kd (HLA-B*57:01; [20]): 108 nM
Sequence: WSILRQRCW

Sequence: HLADQLIHQ
- Kd (HLA-A*02:01 [1]; [18]): 6590 nM
- Kd (HLA-A*02:03; [18]): 311 nM
- Kd (HLA-A*02:11; [18]): 101 nM
- Kd (HLA-A*02:19): ≥ 20000 nM
- Kd (HLA-A*69:01 [13]; [18]): ≥ 20000 nM

- Kd (HLA-B*40:01 [14]; source organism: Escherichia coli O157:H7 str. EDL933): 96 nM
Sequence: WEKAWPAVF

Sequence: ILFDRLPIA
- Kd (HLA-A*02:01 [1]; [21]): ≤ 0.1 nM
- Kd (HLA-A*02:11; [21]): ≤ 0.1 nM
- Kd (HLA-A*03:01 [2]; [21]): ≥ 20000 nM
- Kd (HLA-A*23:01; [21]): ≥ 20000 nM
- Kd (HLA-A*24:03 [3]; [21]): ≥ 20000 nM
- Kd (HLA-A*26:01 [4]; [21]): ≥ 20000 nM
- Kd (HLA-A*29:02): ≥ 20000 nM
- Kd (HLA-A*68:02): ≥ 20000 nM
- Kd (HLA-A*69:01 [13]; [21]): ≥ 20000 nM
- Kd (HLA-B*15:17; [21]): ≥ 20000 nM
- Kd (HLA-B*15:42): 970 nM
- Kd (HLA-B*18:01; [21]): ≥ 20000 nM
- Kd (HLA-B*27:03; [21]): ≥ 20000 nM
- Kd (HLA-B*39:01): ≥ 20000 nM
- Kd (HLA-B*45:06): ≥ 5000 nM
- Kd (HLA-B*46:01; [21]): ≥ 20000 nM
- Kd (HLA-B*51:01): ≥ 20000 nM
- Kd (HLA-B*57:01; [21]): ≥ 20000 nM
- Kd (HLA-B*83:01): ≥ 5000 nM

Sequence: IEDKNLYMF
- Kd (HLA-B*40:01 [14]; source organism: Bacillus mycoides KBAB4): 12.7 nM
